In US20190185537A1 (AstraZeneca / MedImmune, published 2019):
Blank lines part the entries; values can stand above or below the binder they belong to. Numbered stars: 1 amine (or outer) side, 2 acyl side, 3 side chain; on linkers, the order of the positions; unused ones are H or OH. Side chains are listed from the residue outwards. Ends that are not written are not given here. * marks the point of attachment. γGlu = O=C(O)[C@H](CCC(=O)[*:2])N[*:1]; Palmitoyl = CCCCCCCCCCCCCCCC(=O)*

Assays:
Test in all cases: cell-based or functional assay
human GLP-1 receptor = human GLP-1 receptor (human, UniProt P43220 24-463)
Chain of human GLP-1 receptor (P43220 24-463): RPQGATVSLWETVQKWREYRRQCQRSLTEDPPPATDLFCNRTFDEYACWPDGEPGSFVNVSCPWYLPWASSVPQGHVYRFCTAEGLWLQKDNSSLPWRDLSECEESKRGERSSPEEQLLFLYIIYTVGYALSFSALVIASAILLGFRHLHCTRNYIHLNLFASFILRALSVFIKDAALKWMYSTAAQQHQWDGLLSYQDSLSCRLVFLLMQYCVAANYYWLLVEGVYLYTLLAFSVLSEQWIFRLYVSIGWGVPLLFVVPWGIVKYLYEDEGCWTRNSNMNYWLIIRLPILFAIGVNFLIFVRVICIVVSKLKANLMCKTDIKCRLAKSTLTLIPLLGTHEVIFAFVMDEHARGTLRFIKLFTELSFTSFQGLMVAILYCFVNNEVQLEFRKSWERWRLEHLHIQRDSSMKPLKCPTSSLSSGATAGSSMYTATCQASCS

[1] = target: T1, human glucose-dependent insulinotropic peptide (gastric inhibitory polypeptide) receptor (human) (UniProt P48546)
T1 sequence (looked up): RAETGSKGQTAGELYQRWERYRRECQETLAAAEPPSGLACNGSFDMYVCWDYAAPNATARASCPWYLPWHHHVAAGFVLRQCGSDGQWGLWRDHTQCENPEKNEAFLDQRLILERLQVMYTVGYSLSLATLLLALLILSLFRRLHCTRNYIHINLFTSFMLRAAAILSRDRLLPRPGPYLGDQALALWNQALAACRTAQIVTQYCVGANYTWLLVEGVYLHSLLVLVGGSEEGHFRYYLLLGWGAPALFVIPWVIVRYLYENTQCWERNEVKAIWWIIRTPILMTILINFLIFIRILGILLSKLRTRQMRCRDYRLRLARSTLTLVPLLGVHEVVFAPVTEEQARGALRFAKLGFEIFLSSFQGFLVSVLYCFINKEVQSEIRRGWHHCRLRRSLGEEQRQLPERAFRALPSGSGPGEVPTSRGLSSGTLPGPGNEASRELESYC

human glucagon receptor = human glucagon receptor (human, UniProt P47871 26-477)
Chain of human glucagon receptor (P47871 26-477): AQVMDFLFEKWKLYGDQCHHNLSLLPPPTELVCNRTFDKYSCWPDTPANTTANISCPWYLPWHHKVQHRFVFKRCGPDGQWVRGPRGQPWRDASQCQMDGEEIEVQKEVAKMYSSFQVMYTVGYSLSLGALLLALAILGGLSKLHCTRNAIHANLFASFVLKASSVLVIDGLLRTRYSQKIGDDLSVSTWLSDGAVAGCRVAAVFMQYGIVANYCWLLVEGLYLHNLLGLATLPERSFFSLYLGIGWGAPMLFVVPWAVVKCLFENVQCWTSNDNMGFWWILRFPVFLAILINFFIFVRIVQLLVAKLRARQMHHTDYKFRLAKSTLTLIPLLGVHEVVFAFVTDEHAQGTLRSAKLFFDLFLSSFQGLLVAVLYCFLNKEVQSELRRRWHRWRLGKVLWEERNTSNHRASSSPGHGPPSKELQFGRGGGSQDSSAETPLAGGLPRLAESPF

cAMP EC50 (assay 1) (human GLP-1 receptor): 0.145 nM
cAMP EC50 (assay 1) [1]: 102 nM
cAMP EC50 (assay 1) (human glucagon receptor): 0.0053 nM
Binder: HSQGTFTSDYSKYLDSERARDFVAWLEAGG-NH2 [g840]

cAMP EC50 (assay 1) (human GLP-1 receptor): 0.00577 nM
cAMP EC50 (assay 1) [1]: 1.48 nM
cAMP EC50 (assay 1) (human glucagon receptor): 0.000455 nM
B1: g717 (peptide)
peptide: HSQGTFTSDK([γGlu-Palmitoyl])SKYLDSRRAQDFVQWLEAGG-NH2
modifications: N-terminus assumed
SMILES: CCCCCCCCCCCCCCCC(=O)N[C@@H](CCC(=O)NCCCC[C@H](NC(=O)[C@H](CC(=O)O)NC(=O)[C@H](CO)NC(=O)[C@@H](NC(=O)[C@H](Cc1ccccc1)NC(=O)[C@@H](NC(=O)CNC(=O)[C@H](CCC(N)=O)NC(=O)[C@H](CO)NC(=O)[C@@H](N)Cc1c[nH]cn1)[C@@H](C)O)[C@@H](C)O)C(=O)N[C@@H](CO)C(=O)N[C@@H](CCCCN)C(=O)N[C@@H](Cc1ccc(O)cc1)C(=O)N[C@@H](CC(C)C)C(=O)N[C@@H](CC(=O)O)C(=O)N[C@@H](CO)C(=O)N[C@@H](CCCNC(=N)N)C(=O)N[C@@H](CCCNC(=N)N)C(=O)N[C@@H](C)C(=O)N[C@@H](CCC(N)=O)C(=O)N[C@@H](CC(=O)O)C(=O)N[C@@H](Cc1ccccc1)C(=O)N[C@H](C(=O)N[C@@H](CCC(N)=O)C(=O)N[C@@H](Cc1c[nH]c2ccccc12)C(=O)N[C@@H](CC(C)C)C(=O)N[C@@H](CCC(=O)O)C(=O)N[C@@H](C)C(=O)NCC(=O)NCC(N)=O)C(C)C)C(=O)O

cAMP EC50 (assay 1) (human GLP-1 receptor): 0.00907 nM
cAMP EC50 (assay 1) [1]: 1.51 nM
cAMP EC50 (assay 1) (human glucagon receptor): 0.00051 nM
B2: g798 (peptide)
peptide: HSQGTFTSDK([γGlu-Palmitoyl])SKYLDSERARDFVAWLEAGG-NH2
modifications: N-terminus assumed
SMILES: CCCCCCCCCCCCCCCC(=O)N[C@@H](CCC(=O)NCCCC[C@H](NC(=O)[C@H](CC(=O)O)NC(=O)[C@H](CO)NC(=O)[C@@H](NC(=O)[C@H](Cc1ccccc1)NC(=O)[C@@H](NC(=O)CNC(=O)[C@H](CCC(N)=O)NC(=O)[C@H](CO)NC(=O)[C@@H](N)Cc1c[nH]cn1)[C@@H](C)O)[C@@H](C)O)C(=O)N[C@@H](CO)C(=O)N[C@@H](CCCCN)C(=O)N[C@@H](Cc1ccc(O)cc1)C(=O)N[C@@H](CC(C)C)C(=O)N[C@@H](CC(=O)O)C(=O)N[C@@H](CO)C(=O)N[C@@H](CCC(=O)O)C(=O)N[C@@H](CCCNC(=N)N)C(=O)N[C@@H](C)C(=O)N[C@@H](CCCNC(=N)N)C(=O)N[C@@H](CC(=O)O)C(=O)N[C@@H](Cc1ccccc1)C(=O)N[C@H](C(=O)N[C@@H](C)C(=O)N[C@@H](Cc1c[nH]c2ccccc12)C(=O)N[C@@H](CC(C)C)C(=O)N[C@@H](CCC(=O)O)C(=O)N[C@@H](C)C(=O)NCC(=O)NCC(N)=O)C(C)C)C(=O)O

cAMP EC50 (assay 1) (human GLP-1 receptor): 0.0471 nM
cAMP EC50 (assay 1) [1]: 57.4 nM
cAMP EC50 (assay 1) (human glucagon receptor): 0.00105 nM
B3: g824 (peptide)
peptide: HSQGTFTSDYSKYK([γGlu-Palmitoyl])DSRRARDFVEWLEAGG-NH2
modifications: N-terminus assumed
SMILES: CCCCCCCCCCCCCCCC(=O)N[C@@H](CCC(=O)NCCCC[C@H](NC(=O)[C@H](Cc1ccc(O)cc1)NC(=O)[C@H](CCCCN)NC(=O)[C@H](CO)NC(=O)[C@H](Cc1ccc(O)cc1)NC(=O)[C@H](CC(=O)O)NC(=O)[C@H](CO)NC(=O)[C@@H](NC(=O)[C@H](Cc1ccccc1)NC(=O)[C@@H](NC(=O)CNC(=O)[C@H](CCC(N)=O)NC(=O)[C@H](CO)NC(=O)[C@@H](N)Cc1c[nH]cn1)[C@@H](C)O)[C@@H](C)O)C(=O)N[C@@H](CC(=O)O)C(=O)N[C@@H](CO)C(=O)N[C@@H](CCCNC(=N)N)C(=O)N[C@@H](CCCNC(=N)N)C(=O)N[C@@H](C)C(=O)N[C@@H](CCCNC(=N)N)C(=O)N[C@@H](CC(=O)O)C(=O)N[C@@H](Cc1ccccc1)C(=O)N[C@H](C(=O)N[C@@H](CCC(=O)O)C(=O)N[C@@H](Cc1c[nH]c2ccccc12)C(=O)N[C@@H](CC(C)C)C(=O)N[C@@H](CCC(=O)O)C(=O)N[C@@H](C)C(=O)NCC(=O)NCC(N)=O)C(C)C)C(=O)O

cAMP EC50 (assay 1) (human GLP-1 receptor): 0.0398 nM
cAMP EC50 (assay 1) [1]: 74.1 nM
cAMP EC50 (assay 1) (human glucagon receptor): 0.000493 nM
B4: g601 (peptide)
peptide: HSQGTFTSDYSKYK([γGlu-Palmitoyl])DSRRAQDFVQWLEAGG-NH2
modifications: N-terminus assumed
SMILES: CCCCCCCCCCCCCCCC(=O)N[C@@H](CCC(=O)NCCCC[C@H](NC(=O)[C@H](Cc1ccc(O)cc1)NC(=O)[C@H](CCCCN)NC(=O)[C@H](CO)NC(=O)[C@H](Cc1ccc(O)cc1)NC(=O)[C@H](CC(=O)O)NC(=O)[C@H](CO)NC(=O)[C@@H](NC(=O)[C@H](Cc1ccccc1)NC(=O)[C@@H](NC(=O)CNC(=O)[C@H](CCC(N)=O)NC(=O)[C@H](CO)NC(=O)[C@@H](N)Cc1c[nH]cn1)[C@@H](C)O)[C@@H](C)O)C(=O)N[C@@H](CC(=O)O)C(=O)N[C@@H](CO)C(=O)N[C@@H](CCCNC(=N)N)C(=O)N[C@@H](CCCNC(=N)N)C(=O)N[C@@H](C)C(=O)N[C@@H](CCC(N)=O)C(=O)N[C@@H](CC(=O)O)C(=O)N[C@@H](Cc1ccccc1)C(=O)N[C@H](C(=O)N[C@@H](CCC(N)=O)C(=O)N[C@@H](Cc1c[nH]c2ccccc12)C(=O)N[C@@H](CC(C)C)C(=O)N[C@@H](CCC(=O)O)C(=O)N[C@@H](C)C(=O)NCC(=O)NCC(N)=O)C(C)C)C(=O)O

cAMP EC50 (assay 1) (human GLP-1 receptor): 0.0448 nM
cAMP EC50 (assay 1) [1]: 41.7 nM
cAMP EC50 (assay 1) (human glucagon receptor): 0.00704 nM
B5: g867 (peptide)
peptide: HSQGTFTSDYSKYLDSK([γGlu-Palmitoyl])RARDFVAWLVAGG-NH2
modifications: N-terminus assumed
SMILES: CCCCCCCCCCCCCCCC(=O)N[C@@H](CCC(=O)NCCCC[C@H](NC(=O)[C@H](CO)NC(=O)[C@H](CC(=O)O)NC(=O)[C@H](CC(C)C)NC(=O)[C@H](Cc1ccc(O)cc1)NC(=O)[C@H](CCCCN)NC(=O)[C@H](CO)NC(=O)[C@H](Cc1ccc(O)cc1)NC(=O)[C@H](CC(=O)O)NC(=O)[C@H](CO)NC(=O)[C@@H](NC(=O)[C@H](Cc1ccccc1)NC(=O)[C@@H](NC(=O)CNC(=O)[C@H](CCC(N)=O)NC(=O)[C@H](CO)NC(=O)[C@@H](N)Cc1c[nH]cn1)[C@@H](C)O)[C@@H](C)O)C(=O)N[C@@H](CCCNC(=N)N)C(=O)N[C@@H](C)C(=O)N[C@@H](CCCNC(=N)N)C(=O)N[C@@H](CC(=O)O)C(=O)N[C@@H](Cc1ccccc1)C(=O)N[C@H](C(=O)N[C@@H](C)C(=O)N[C@@H](Cc1c[nH]c2ccccc12)C(=O)N[C@@H](CC(C)C)C(=O)N[C@H](C(=O)N[C@@H](C)C(=O)NCC(=O)NCC(N)=O)C(C)C)C(C)C)C(=O)O

cAMP EC50 (assay 1) (human GLP-1 receptor): 0.0973 nM
cAMP EC50 (assay 1) [1]: 84.2 nM
cAMP EC50 (assay 1) (human glucagon receptor): 0.00948 nM
B6: g823 (peptide)
peptide: HSQGTFTSDYSRYLDSK([γGlu-Palmitoyl])RARDFVEWLVAGG-NH2
modifications: N-terminus assumed
SMILES: CCCCCCCCCCCCCCCC(=O)N[C@@H](CCC(=O)NCCCC[C@H](NC(=O)[C@H](CO)NC(=O)[C@H](CC(=O)O)NC(=O)[C@H](CC(C)C)NC(=O)[C@H](Cc1ccc(O)cc1)NC(=O)[C@H](CCCNC(=N)N)NC(=O)[C@H](CO)NC(=O)[C@H](Cc1ccc(O)cc1)NC(=O)[C@H](CC(=O)O)NC(=O)[C@H](CO)NC(=O)[C@@H](NC(=O)[C@H](Cc1ccccc1)NC(=O)[C@@H](NC(=O)CNC(=O)[C@H](CCC(N)=O)NC(=O)[C@H](CO)NC(=O)[C@@H](N)Cc1c[nH]cn1)[C@@H](C)O)[C@@H](C)O)C(=O)N[C@@H](CCCNC(=N)N)C(=O)N[C@@H](C)C(=O)N[C@@H](CCCNC(=N)N)C(=O)N[C@@H](CC(=O)O)C(=O)N[C@@H](Cc1ccccc1)C(=O)N[C@H](C(=O)N[C@@H](CCC(=O)O)C(=O)N[C@@H](Cc1c[nH]c2ccccc12)C(=O)N[C@@H](CC(C)C)C(=O)N[C@H](C(=O)N[C@@H](C)C(=O)NCC(=O)NCC(N)=O)C(C)C)C(C)C)C(=O)O

cAMP EC50 (assay 1) (human GLP-1 receptor): 0.012 nM
cAMP EC50 (assay 1) [1]: 64 nM
cAMP EC50 (assay 1) (human glucagon receptor): 0.000792 nM
B7: g780 (peptide)
peptide: HSQGTFTSDYSKYK([γGlu-Palmitoyl])DSRRARDFVAWLEAGG-NH2
modifications: N-terminus assumed
SMILES: CCCCCCCCCCCCCCCC(=O)N[C@@H](CCC(=O)NCCCC[C@H](NC(=O)[C@H](Cc1ccc(O)cc1)NC(=O)[C@H](CCCCN)NC(=O)[C@H](CO)NC(=O)[C@H](Cc1ccc(O)cc1)NC(=O)[C@H](CC(=O)O)NC(=O)[C@H](CO)NC(=O)[C@@H](NC(=O)[C@H](Cc1ccccc1)NC(=O)[C@@H](NC(=O)CNC(=O)[C@H](CCC(N)=O)NC(=O)[C@H](CO)NC(=O)[C@@H](N)Cc1c[nH]cn1)[C@@H](C)O)[C@@H](C)O)C(=O)N[C@@H](CC(=O)O)C(=O)N[C@@H](CO)C(=O)N[C@@H](CCCNC(=N)N)C(=O)N[C@@H](CCCNC(=N)N)C(=O)N[C@@H](C)C(=O)N[C@@H](CCCNC(=N)N)C(=O)N[C@@H](CC(=O)O)C(=O)N[C@@H](Cc1ccccc1)C(=O)N[C@H](C(=O)N[C@@H](C)C(=O)N[C@@H](Cc1c[nH]c2ccccc12)C(=O)N[C@@H](CC(C)C)C(=O)N[C@@H](CCC(=O)O)C(=O)N[C@@H](C)C(=O)NCC(=O)NCC(N)=O)C(C)C)C(=O)O
